Source: the supplement of paper PMC9170038

Experiments:
MS2 coat protein [1] = test: apparent KD of MS2 coat protein; designed switch direction (-1 OFF switch, 1 ON switch): 1; higher = weaker reporter binding; details: Eterna round: R98
Protocol: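 RNA-MaP: designed FMN/MS2 RNA switches (84 nt design region) are transcribed on-chip within common flanks and titrated with SNAP-549-labelled MS2 coat protein (about 1-3000 nM) in 100 mM Tris pH 7.5, 80 mM KCl, 4 mM MgCl2, without or with 200 uM FMN. Median apparent KD per design; activation ratio = KD,OFF / KD,ON.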

MS2 coat protein [2] = test: apparent KD of MS2 coat protein, switch ON state; designed switch direction (-1 OFF switch, 1 ON switch): 1; higher = weaker reporter binding; details: FMN input: 0 or 200 uM; Eterna round: R93 (includes R88 designs)
How it was run: (§1)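 Apparent KD per design is the median of normalised cluster binding-curve fits. Designed RNA switches transcribed on-chip from Illumina sequencing clusters were titrated with SNAP-549-labelled MS2 coat protein in twofold steps from 0.7 or 1.5 nM to 3 µM, with 0.8–1.5 h down to 10–20 min per step. Buffer: 100 mM Tris-HCl pH 7.5, 80 mM KCl, 4 mM MgCl2, without or with constant ligand.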

MS2 coat protein [3] = test: apparent KD of MS2 coat protein, switch OFF state (with FMN for OFF switches, without FMN for ON switches); designed switch direction (-1 OFF switch, 1 ON switch): 1; higher = weaker reporter binding; details: FMN input: 0 or 200 uM; Eterna round: R93 (includes R88 designs)
How it was run: as §1

| Sequence | apparent KD of MS2 coat protein (MS2 coat protein [1]; input ligand: FMN 200 uM) | apparent KD of MS2 coat protein (MS2 coat protein [1]; input ligand: none) | apparent KD of MS2 coat protein (MS2 coat protein [2]) | apparent KD of MS2 coat protein (MS2 coat protein [3]) |
| --- | --- | --- | --- | --- |
| AAAACAUGAGGAUCACCCAUGUAAAGUUCGGAAAGUUAGAGUGAGGAUAUACAAAUUUUUAUUUAGUAGAAGGCACUGGGUACA [JR_SSNG3_Sub032Nu] | 24.8 nM | 26.7 nM |  |  |
| AAAACAUGAGGAUCACCCAUGUAUAGAUCGGUUGUUAGGAGUGAGGAUAUGCUUAAAAUAAGGUAGCAGAAGGCACUGGGUACA [JR_SSNG3_Sub071] | 23.6 nM | 15.3 nM |  |  |
| AAAUAAAAUAUAGGAUAUGGAAACAUGAGGAUCACCCAUGUAAAAUAAAAUAAAUAAUAAUAUAACCAGAAGGAUAAAAUAUAA [LRO002_SS NG 2] | 36.1 nM | 33.9 nM |  |  |
| AAGAUACUUACAGGAUAUAGGGCAGAGGGUGCCCUAGAAGGGUGAACAUGAGGAUCACCCAUGUAUGUAUCAGAUUAGAAGGCA [Inleesti] | 63.4 nM | 43.3 nM |  |  |
| AGAAUGACAUGAGGAUCACCCAUGUUGGGAAAACCCGUAACUCAGGAUAUGUACGCGAAAGACCGACAGAAGGGAGAUCUACAC [Amaes] | 43.3 nM | 37.4 nM |  |  |
| AUAGGUUAAGGAGGAUAUAGAGGGAGAAGUAAACAUGAGGAUCACCCAUGUAUUUAAUUAGUUUACUAGAAGGCUUGUGAUUGU | 50.9 nM | 45.9 nM |  |  |
| CAGCAAUUCUUAGGAUAUGCUCAGGAAUACUGAGCAGAAGGAAGAUAUACCUGAGGAUCACCCAGGUUAAACUGAAGCUGAAUA [Same State NG1 - A3C, U17G Submission 7B] | 17.4 nM | 15.7 nM |  |  |
| CGGAGACAUGAGGAUCACCCAUGUGAGAAGAGGCGAGGAUAUCGAAAGAAAGAAGAGAAACGAGAAGGCGCGAGAU [salish99-SS1-069] |  |  | 20.4 nM | 29.8 nM |
| GAAAAACAUGAGGAUCACCCAUGUGAAAACUUGGGAGGAUAUACUAAGACGAAAGUCGAGGUAGAAGGCCUAAAAG [Same State 1.4i (Mat - Mod of Eli - )] |  |  | 22.4 nM | 74.1 nM |
| GAAAAACAUGAGGAUCACCCAUGUGAGAAUAUGGGAGGAUAUACAAGGACGAAAGUCAAGGUAGAAGGCCUAAAAG [Mat - Same State 1 - Eli mod - 28] |  |  | 34.3 nM | 155 nM |
| GAAAAACAUGAGGAUCACCCAUGUGAGAAUAUGGGAGGAUAUUCAAAGACGAAAGUCAAAGAAGAAGGCCUAAAAG [Mat - Same State 1 - Eli mod - 37] |  |  | 31.2 nM | 276 nM |
| GAAAAACAUGAGGAUCACCCAUGUGUAAAUAUGGGAGGAUAUACAAAGACGUAAGUCAGAGUAGAAGGCCUAAAAG [Garnet 93] |  |  | 29 nM | 176 nM |
| GAAAUACAUGAGGAUCACCCAUGUUAGGUAAAACAAGGAUAUCUAGAUAAAUAAAAAUAUAGAGAAGGUGUAUAAA [JR_SS001_Sub206] |  |  | 20.6 nM | 25.1 nM |
| GAAGACAUAGUACAGGAUAUAUGAAUAGUCACAUGAGGAUCACCCAUGUCCAUUUAUAUGGGCACAUAGAAGGGUGGUAGUUGUC [Mat - Same state - Malcolm Mod - D125] |  |  | 8.69 nM | 35.3 nM |
| GACAAACAUGAGGAUCACCCAUGUAGAAAUAUGGGAGGAUAUACAAAGACGAAAGUCAAAGUAGAAGGCCUAAAAG [77%, Mat - Mod of Eli - With 1 more C's] |  |  | 21.7 nM | 79 nM |
| GAGAAACAUGAGGAUCACCCAUGUAGAAAUAUGGGAGGAUAUACAAAGACGAAAGUCAAAGUAGAAGGCCUAGAAG [77%, Mat - Mod of Eli - With 2 more G's] |  |  | 21.9 nM | 51.6 nM |

| Sequence | apparent KD of MS2 coat protein (MS2 coat protein [1]; input ligand: FMN 200 uM) | apparent KD of MS2 coat protein (MS2 coat protein [1]; input ligand: none) | apparent KD of MS2 coat protein (MS2 coat protein [2]) | apparent KD of MS2 coat protein (MS2 coat protein [3]) |
| --- | --- | --- | --- | --- |
| GAGAAACAUGAGGAUCACCCAUGUAGAGAUAUGGGAGGAUAUACAGAGACGAGAGUCAAAGUAGAAGGCCUAGAAG [77%, Mat - Mod of Eli - With 5 more G's] |  |  | 25.5 nM | 46.4 nM |
| GAGAAGAAGAGAGAGGAUAUCCAAAGGAAAACAUGAGGAUCACCCAUGUAAAAGGUAGGAAAUUGGGAGAAGGCUCAAAGGAGGG [salish99-ss2-031] |  |  | 23.2 nM | 29.5 nM |
| GAGGACGUAGGAUAGGAUAUGUGAAUAAUUACAUGAGGAUCACCCAUGUCCAUUUAUAUGGGAACAUAGAAGGGUUUUCGUUAUC [SameState2 Malc#40] |  |  | 646 nM | 387 nM |
| GGGAGACAUGAGGAUCACCCAUGUGAAAACGUGCGAGGAUAUGAAUGGAAACCAUACUGUUCAGAAGGCGUUUGUC [Titus Petronius Secundus] |  |  | 46.5 nM | 69.2 nM |
| GGGAGACAUGAGGAUCACCCAUGUGAGAAGAGGCGAGGAUAUCGAAAGAAAGAAGAGAAACGAGAAGGCGCGAGUA [salish99-SS1-050] |  |  | 29.7 nM | 65.5 nM |
| GUAAGACAUGAGGAUCACCCAUGUAUGCGUCAGCAAGGAUAUGGGAAUAAAAGACAGAAACCAGAAGGUGCUGUUG [Enqudi] |  |  | 26.1 nM | 153 nM |
| GUGGACAUAGGAUAGGAUAUAUGAAUAAUUACAUGAGGAUCACCCAUGUCCAUUUAUAUGGGAACAUAGAAGGGUUGUAGUUAAC [Mat - Same state - Malcolm Mod - D131] |  |  | 117 nM | 81.9 nM |
| GUGGCCUAGGCACAGGAUAUGUUGCUCGUAACAUGAGGAUCACCCAUGUGCCUAUGAGAUUUAAUGCAGAAGGGUGCACGCCACG [Edbeso] |  |  | 14.7 nM | 233 nM |
| GUGUAAAGAAUCGAGGAUAUCCUGAAAAGCACAUGAGGAUCACCCAUGUAAGAGCGAGAAUAAUGGGAGAAGGCGAGUUAUCGGU [JR_SS002_Sub1711] |  |  | 20.1 nM | 33 nM |
| UACACGCUGGCGCAGGAUAUGUCGCUGGUGACAUGAGGAUCACCCAUGUAUACCAUUGCGGUUAAGCAGAAGGGUGAGAAGCGUG [Bidibeso] |  |  | 23.5 nM | 89.8 nM |
| UAGAGACAUGAGGAUCACCCAUGUAGGAUUAUGGGAGGAUAUACAAAGACGAGAGUCAGAGUAGAAGGCCUAGGAC [salish99-ss1-136(!)] |  |  | 21.4 nM | 60.1 nM |
| UAUAGACAUGAGGAUCACCCAUGUAGAAUUAUGGGAGGAUAUACAAAGACGAGAGUCAGAGUAGAAGGCCUAGGAU [salish99-ss1-154] |  |  | 22.2 nM | 63.7 nM |
| UCAGUGCCGACGAAGGAUAUAGCGGGUGAGACAUGAGGAUCACCCAUGUAUGCAGAACUCAUCCUCUAGAAGGUUGAGACGGCAA [Onaaror] |  |  | 101 nM | 84.3 nM |
| UGGAGACAUGAGGAUCACCCAUGUGAGAAGAGGCGAGGAUAUCGAAAGAAAGAAGAGAAACGAGAAGGCGCGAGAC [salish99-SS1-045] |  |  | 25.2 nM | 41.9 nM |
| UGUUCGAGUAGUGAGGAUAUUCAUGGGCCCACAUGAGGAUCACCCAUGUAAAGGACCGGGCCGAAGGAGAAGGCGCGUAAAAUUA [Esenan] |  |  | 28.9 nM | 73.3 nM |
| UUACAACAUGAGGAUCACCCAUGUAAACCCGACUAAGGAUAUGGAGUGAAAGAUAUCAUCCCAGAAGGUAGAAAUA [Istegeisis] |  |  | 48.2 nM | 53.3 nM |
